Test results from publication PMC6232179.

Target: COX-2 (prostaglandin endoperoxide synthase 2, PTGS2), purified His-tagged protein (UniProt P35354)
Assay: SPR; COX-2 immobilised on a CM5 chip, cyclosporine A flowed at increasing concentrations; 10 mM Hepes pH 7.2, 150 mM NaCl, 1 mM EDTA, 0.005% P20, 2% ethanol; 25 °C, 30 µl/min; 1:1 Langmuir model; triplicate

Chain of COX-2 (prostaglandin endoperoxide synthase 2, PTGS2), purified His-tagged protein (P35354 18-604): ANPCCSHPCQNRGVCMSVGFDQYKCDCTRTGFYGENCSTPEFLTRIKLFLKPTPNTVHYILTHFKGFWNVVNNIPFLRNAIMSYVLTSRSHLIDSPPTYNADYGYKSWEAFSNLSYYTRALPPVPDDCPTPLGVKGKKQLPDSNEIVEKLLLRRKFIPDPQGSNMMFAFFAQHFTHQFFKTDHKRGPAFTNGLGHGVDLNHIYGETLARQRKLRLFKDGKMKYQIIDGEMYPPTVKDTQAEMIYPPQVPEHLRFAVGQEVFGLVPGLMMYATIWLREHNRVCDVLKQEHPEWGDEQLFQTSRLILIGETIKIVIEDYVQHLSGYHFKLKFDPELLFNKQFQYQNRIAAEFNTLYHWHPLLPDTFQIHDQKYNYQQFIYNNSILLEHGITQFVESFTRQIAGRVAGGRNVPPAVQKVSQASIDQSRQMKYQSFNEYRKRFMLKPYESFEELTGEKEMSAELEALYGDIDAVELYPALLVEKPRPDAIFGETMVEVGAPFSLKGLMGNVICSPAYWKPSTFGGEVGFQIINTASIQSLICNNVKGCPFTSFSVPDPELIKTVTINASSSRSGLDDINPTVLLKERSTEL

Cyclosporine A (peptide) showed a Kd of 895 nM.
